The assay has as its system fluorogenic substrate. The format is biochemical, Staphylococcus aureus. The note with it: 2.0 μM fluorogenic substrate; for measureable activity of mutant enzyme: enzyme 21.38 nM (dimer), n ≥ 3.

These results are taken from PMC5397363 (Molecular microbiology, 2017).

B1: G21A (protein)
chain: MITVDITVNDEGKVTDVIMDAHADHGEYGHDIVCAGASAVLFGSVNAIIGLTSERPDINYDDNGGHFHIRSVDTNNDEAQLILQTMLVSLQTIEEEYNENIRLNYK
modifications: left off: His6, N-terminal, cleaved | SUMO, N-terminal, cleaved
For the molecule B1, the “measureable activity of mutant enzyme” value is “none”.

B2: S38A (protein)
chain: MITVDITVNDEGKVTDVIMDGHADHGEYGHDIVCAGAAAVLFGSVNAIIGLTSERPDINYDDNGGHFHIRSVDTNNDEAQLILQTMLVSLQTIEEEYNENIRLNYK
modifications: left off: His6, N-terminal, cleaved | SUMO, N-terminal, cleaved
With B2, the “measureable activity of mutant enzyme” value was “none”. For the setting “enzyme 213.8 nM”, the “activity relative to the wild-type enzyme” value is recorded as 2.1 ± 0.2%.

B3: H22A (protein)
chain: MITVDITVNDEGKVTDVIMDGAADHGEYGHDIVCAGASAVLFGSVNAIIGLTSERPDINYDDNGGHFHIRSVDTNNDEAQLILQTMLVSLQTIEEEYNENIRLNYK
modifications: left off: His6, N-terminal, cleaved | SUMO, N-terminal, cleaved
As for B3, the “measureable activity of mutant enzyme” value is listed as “none”.

B4: D31A (protein)
chain: MITVDITVNDEGKVTDVIMDGHADHGEYGHAIVCAGASAVLFGSVNAIIGLTSERPDINYDDNGGHFHIRSVDTNNDEAQLILQTMLVSLQTIEEEYNENIRLNYK
modifications: left off: His6, N-terminal, cleaved | SUMO, N-terminal, cleaved
With B4, the “measureable activity of mutant enzyme” value is given as “none”.
